In patent US20190248863A1:

Experiments:
Assay in all cases: cell-based or functional assay
human RXFP3 (human) = human RXFP3 (human) (UniProt Q9NSD7)
human RXFP4 (human) = human RXFP4 (human) (UniProt Q8TDU9)
human RXFP2 (human) = human RXFP2 (human) (UniProt Q8WXD0)
Sequence of human RXFP2 (human) (Q8WXD0 whole entry): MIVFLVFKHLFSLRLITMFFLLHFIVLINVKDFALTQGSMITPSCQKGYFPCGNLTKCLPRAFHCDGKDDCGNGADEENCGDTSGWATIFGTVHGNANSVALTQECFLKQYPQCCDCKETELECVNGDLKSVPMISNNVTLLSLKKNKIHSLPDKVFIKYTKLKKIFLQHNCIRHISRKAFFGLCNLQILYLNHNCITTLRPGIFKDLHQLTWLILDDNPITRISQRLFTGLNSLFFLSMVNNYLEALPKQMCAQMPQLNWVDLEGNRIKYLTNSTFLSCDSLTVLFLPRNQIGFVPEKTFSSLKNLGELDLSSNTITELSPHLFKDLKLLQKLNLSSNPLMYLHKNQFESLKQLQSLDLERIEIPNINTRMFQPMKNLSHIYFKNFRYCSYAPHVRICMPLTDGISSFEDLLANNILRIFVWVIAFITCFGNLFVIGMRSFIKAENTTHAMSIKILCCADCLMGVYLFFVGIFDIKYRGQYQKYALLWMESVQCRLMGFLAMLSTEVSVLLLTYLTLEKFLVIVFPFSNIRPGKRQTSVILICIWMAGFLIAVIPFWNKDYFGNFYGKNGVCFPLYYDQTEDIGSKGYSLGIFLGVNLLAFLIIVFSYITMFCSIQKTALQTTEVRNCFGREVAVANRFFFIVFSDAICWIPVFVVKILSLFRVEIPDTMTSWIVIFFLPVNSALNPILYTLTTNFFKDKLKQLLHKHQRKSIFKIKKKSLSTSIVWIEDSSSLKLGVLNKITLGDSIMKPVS

Sequence of human RXFP4 (human) (Q8TDU9 whole entry): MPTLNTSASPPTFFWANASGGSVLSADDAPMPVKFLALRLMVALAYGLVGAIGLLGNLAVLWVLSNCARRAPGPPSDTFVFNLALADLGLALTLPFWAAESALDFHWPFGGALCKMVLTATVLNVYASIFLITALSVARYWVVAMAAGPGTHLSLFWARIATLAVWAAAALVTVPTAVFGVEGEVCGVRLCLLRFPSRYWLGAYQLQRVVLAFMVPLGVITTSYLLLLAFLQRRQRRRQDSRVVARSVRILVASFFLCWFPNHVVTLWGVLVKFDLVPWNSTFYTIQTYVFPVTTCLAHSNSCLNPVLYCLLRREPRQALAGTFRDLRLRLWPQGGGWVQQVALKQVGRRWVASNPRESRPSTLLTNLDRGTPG
Sequence of human RXFP3 (human) (Q9NSD7 whole entry): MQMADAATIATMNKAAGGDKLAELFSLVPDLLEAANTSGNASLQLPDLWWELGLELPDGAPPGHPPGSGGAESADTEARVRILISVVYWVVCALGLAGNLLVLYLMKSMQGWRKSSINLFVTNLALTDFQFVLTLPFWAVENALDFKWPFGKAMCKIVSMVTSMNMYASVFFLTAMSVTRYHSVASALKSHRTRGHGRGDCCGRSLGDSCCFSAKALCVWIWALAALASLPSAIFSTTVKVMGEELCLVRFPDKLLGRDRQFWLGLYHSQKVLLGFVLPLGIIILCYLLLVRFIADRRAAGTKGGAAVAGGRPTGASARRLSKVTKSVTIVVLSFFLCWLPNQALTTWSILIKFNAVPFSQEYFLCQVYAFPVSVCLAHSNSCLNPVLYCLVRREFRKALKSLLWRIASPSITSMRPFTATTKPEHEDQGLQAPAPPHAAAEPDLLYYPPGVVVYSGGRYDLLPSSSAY

Row | cAMP Assay EC50 (nM), inhibition of forskolin-induced cAMP, human RXFP3/CHO-K1 cells (human RXFP3 (human)) [nM] | cAMP Assay EC50 (nM), inhibition of forskolin-induced cAMP, human RXFP4/CHO-K1 cells (human RXFP4 (human)) [nM] | maximal inhibition of forskolin-induced cAMP (partial agonist activity), human RXFP4/CHO-K1 cells (human RXFP4 (human)) [%] | cAMP Assay EC50 (nM), human RXFP2/CHO-K1 cells (human RXFP2 (human)) [nM] | Substance
1 | 0.6 | 2.8 | 40 | – | recombinant human relaxin 3 (from UniProt Q8WXF3 119-142; Q8WXF3 26-52) (ligand)
2 | – | – | – | 0.46 | insulin like 3 protein-INSL3 (from UniProt P51460 106-131; P51460 21-55) (ligand)
